# System: K4 kissing-loop RNA reporter
# Assay: apparent KD of K4 kissing-loop reporter; higher = weaker reporter binding
# Settings: Eterna round: R107; input ligand: theophylline 20 uM
# Protocol: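 RNA-MaP round R107: designed RNA switches with theophylline, tryptophan, arginine or FMN aptamers are transcribed on-chip within common flanks. They are titrated with a labelled K4 kissing-loop RNA reporter in RNA-MaP buffer (100 mM Tris pH 7.5, 80 mM KCl, 4 mM MgCl2), without ligand or with the indicated ligand. Median apparent KD per design.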
# 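Also: bound reporter read as fluorescence of individual clusters on recovered sequencing chips by microscopy, with normalized cluster intensities fitted with a binding model.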
row,Sequence,apparent KD of K4 kissing-loop reporter
1,CACUUACGUAGUGAUGUUACGAUCUCUGAUACCAGACAACUCUAAGUCCCUUGGCAGCAGUCAUUUUGCUUAGUAUUUACUCAAA [JR_ExcTheophyA_Sub016],605 nM
2,CCACCUCCAGAAGGAUAUAGUGUAUCAGAUUCACUCGAGUGCCUUAAACUAAGGAGUGAUGUUCCGCUAGAAGGUCUCGUAGGCA [theeternabot_exclusion_KL_FMN_B_45],138 nM
3,UGACGUUUGGGAAGGAGCGGAAUGUAAUACGGAACGCGUGGAGAUGCAGUGAUGUUGCAGAUCCAGGUAGGUCGCCCAAGGGACG [Zainat],84.9 nM
4,UAAUUUAUGUCUUUAAUUUUAUUAUCAGAUACCAGUGAUUUAUGACACCCUUGGCAGCUGUAUUGAGUGAUGUUCUUAUAUUAAA [JR_Nu_ExcTheophyA_Sub023],190 nM
5,UUAAAAUAUAUAAAUAAUAAGGGAAUUGAUACCAGACAGAAUUCUGUCCCUUGGCAGCAGUGAUGUUGUUGCAAUUUAAAUAAUU [AK1 Exc Theophylline A],136 nM
6,AGGACGGUUAUGGAUACCAGUCCGGAACUUGUCCAUGGAGUGAUGUUCCGUCCAGCUCCGGACCCUUGGCAGCCAGACUGCUGAA [theeternabot_sameState_KL_Theo_B_41],138 nM
7,UGAUACCAGACUGAUACCAGCCAGUGAUGUUGGCUAAGCCGAAGAGGUGUCAAAGACACCGGCCCUUGGCAGCAGUCUGGUAUCU [#06 K4 Theophylline B Exclusion],117 nM
8,CGGCGGAGUGAUGUUCCACCUACUGCGGAUACCAGCUUUGCCAAAGGCCCUUGGCAGCCGCACGGCUCAGUGAUGUUGGGUCGCG [Same State Theophylline A G11],223 nM
9,CCGCUACCCUCAGGAUAUUAAAUAUUAGUGAUGUUAAUAAACCGAUGGCGAAAGCCAUCGGUAUGUUAAGAAGGGAGGGUAGCGG,949 nM
10,UGACUGGAUGGAAGGAGCGCUAAACUCCUAGUGAUGUUAGGGAAAUGAGACAAAGUCUCAAGGCAGGUAGGUCGCCAUCUAGUCU [FiskerMod 16 - Jieux - Same State - Arginine B],506 nM
11,AGUAGAGCAUCAGAUACCAGACUGAACUGAUGGUAAGGAGUGAUGUUCCUUAAUCAGCUAGUCCCUUGGCAGCUGAUAAUAGUCA [Theo B SS t3],183 nM

# Same assay, conditions: Eterna round: R107; input ligand: tryptophan 2.4 mM
row,Sequence,apparent KD of K4 kissing-loop reporter
1,GCGAUUCAGUGAUGUUGGAAAUACAGGGAUACCAGCCGAGAAUAAGGCCCUUGGCAGCUUAAUAGGAAAGAACUAAGUAAGACGC [Theophylline A Same State; Euphoria Solution 2],402 nM
2,AUUUUUUUGUCAGGAUAUUAGUAUGGUUUUGGUUUGUUAGUGAUGUUGAUAUUUUGUUUAUGUAUUUAAGAAGGGAUUUAGCGGU [gyhhgumullin],320 nM
3,GUAGACAGACUGCGGGCCUAGUCUACAGACUAGGAUAUCAGGAAACUGAGAAGGAGUCUAGUUGCAGUGAUGUUGCAAGAAUAAU [KL-SSFMN-A26],78.4 nM
4,AAGUGUCAUUAGACACAGACUACAAUAAACUAGGAUAUGCUGAUAAGCAGAAGGAGUGAUGUUCCUUUCAAGUAGUCAAUUAAAU [FmnAX 20 Mat Inspired #SwitchBubble #StaticStem #K4Late],97.6 nM
5,AAUACGAAGCAGUGAUGUUGCUUAUGAGAAGGAGCGCACGAAAGUGCAGGUAGGUCGCUCAGCCAUGUGGACGAAAACGUCCACA [whbob_SS_Arginine_A_sa109],80.5 nM
6,CCGAUGGGUACAGGAUAUGCCAGUGAUGUUGGUUUAGAUGGACCCAGAAGGAGACACCAGACGGAGGCAGAAGGGUAGCAAGGGA [Raarriis],105 nM
7,GCAGUGAUGUUGCGCGGGUACGGUAGAGUACGAGGACCGGUACGGCCGCCACUCGUACGGAACUGGCUAAUUUAUGGAAUGGUGA [IV],213 nM
8,UGUUUUUACUGAAGGAGCGGCAAUUGAUACGUAGAUAUAGUGAUGUUAUAUAAGAUAGAGAGCCAGGUAGGUCGCAGAGUGUUUC [ExArgB.aA],172 nM
9,AAUAAAAUCACGGCCGCCACUGAUGCUAAUAUUAGCAGUGAUGUUGCUAUGUAGAUUUUAUUUAACAGGACCGGGUGAAUAUUUA [JR_SSTryptoB_Sub025],269 nM
10,UAACUUGCAGUGAUGUUGCAAGAACUGGAUACCAGCAUGGAAACAUGCCCUUGGCAGCCAGAAGCUGGCUGAACAUCACGUCAGU [Design5],217 nM
11,UUAAUAAUUCAAGGAUAUGUUUUCUAUUUCGAGUGAUGUUCGGUAUUAAUAAAUUUAAUAGAUUAUACAGAAGGUGAUGGAUAGU [Cynwulf-mod#5],65.8 nM
12,AAGUCAUAUAGAAGGAGCGUGUUUUAUAAUUUAUUUUCAUGAUCGAGUGAUGUUCGAUAUACACAGGUAGGUCGCUGUAUAAUAA [hbob_SS_Arginine_B_2t140],101 nM
13,CUACAUGCACAGGAGUGAUGUUUAUGGGCUCGAGGACCGGUACGGCCGCCACUCGUUAUGGCACGCAGUAGAUAUAGGCGAGGAA [theeternabot_sameState_KL_Trp_A_41],871 nM
14,AGUGUGCAAAAGCACACUCAGCACAAGGACAAGGAUAUCUACUAAUAGAGAAGGUGUCCUUUCCUUAGUGAUGUUAAGGAGCUGA [Omei KL FMN A SS D v1],693 nM
15,UGUACCGAGUCAGGAUAUGGCGUCGAAAGACGAAUGCUAGUGAUGUUAGGGAUCUGCGAAAGCAGUCUAGAAGGGACUUGGUACU [FmnBS 26 G36+U68],525 nM

# Reference: the supplement of paper PMC9170038
